Laboratory results reported in patent US20100158890A1, “USE OF THROMBIN MUTANTS TO INHIBIT THE ANTICOAGULATION EFFECT OF THROMBIN INHIBITORS” (priority 2006, published 2010).

How the values were obtained:
platelet-poor plasma = experiment: Thrombin generation monitoring by Thrombinoscope in platelet-poor plasma; type: biochemical, human; details: for effect on onset and peak of thrombin generation: anticoagulant alone in plasma
Protocol: Fluorogenic substrate (Z-Gly-Gly-Arg-AMC HCl, molecular weight 616.07) for thrombin generation assay was obtained from Bachem (Switzerland). HEPES (N-2-hydroxyethyl piperazine-N′-2-ethanesulfonic acid), CaCl2, BSA (bovine serum albumin) and DMSO (dimethyl sulfoxide) were from Sigma (Sigma, St Louis, Mo.). Tissue factor was dissolved in 10 ml sterile water and then further diluted with working HEPES buffer (20 mM HEPES, 140 mM NaCl, 5 mg/ml BSA), (1:75). For the preparation of Fluca-buffer 1.75 ml HEPES buffer (pH 7.35, 20 mM HEPES, 60 mg/ml BSA was added to 0.2 ml of 1 M CaCl2 in a glass test tube, mixed, and warmed up for few minutes at 37° C. Just before use 50 μl of 100 mM fluorogenic substrate made in DMSO was added to the HEPES-CaCl2 solution and mixed to dissolve. This buffer now contains 2.5 mM substrate and 100 mM CaCl2.
(§1) For plasma collection, whole blood samples (5 ml, in 3.2% trisodium citrate) were obtained after institutional approval and informed written consent from 6 volunteers that had not received any medication in the preceding 2 weeks. For APTT and thrombin generation experiments blood was centrifuged to obtain platelet poor plasma (PPP) for 20 min at 3000×g. PPP was used immediately or stored for not more than a couple of days at −20° C. For TEG® measurements, whole blood in citrate was used after recalcification within 5 min from collection. In all experiments, the final concentration of recombinant thrombin mutant was 5 μg/ml.
In order to evaluate this complex regulation of thrombin generation, the Thrombinoscope® system, which enables automated acquisition of thrombin generation time courses in platelet-rich plasma or in platelet-poor plasma (Hemker et al. (2003) Pathophysiology of Haemostasis & Thrombosis, 33:4-15). The method for the automated estimation of endogenous thrombin potential using a commercially available fluorogenic substrate (Z-GlyGly-Arg-AMC) has been described in detail elsewhere (Hemker et al. (2003) Pathophysiology of Haemostasis & Thrombosis, 33:4-15). Briefly, for the thrombin generation experiments, 80 μl of PPP, and 20 μl of the thrombin generation trigger are added to wells of 96-well microtiter plate (Microfluor2, Labsystems, Finland), followed by 20 μl of substrate-calcium chloride buffer. The reaction is monitored using microplate fluorometer (Fluoroskan Ascent, Labsystems, Finland) set at 390 nm (excitation wavelength) and 460 nm (emission wavelength). […] Additionally, heparin (0.2 or 0.5 U/ml) was also evaluated. Heparin reversal with an appropriate concentration of protamine was used for comparison (1 mg of protamine for each 100 units (1 mg) of heparin). To evaluate the effects of the thrombin mutant on protein C activation (Regnault et al. (2003) Thrombosis and Haemostasis, 89:208-212), soluble thrombomodulin (0.75 μg/ml, final concentration) was added to the sample plasma containing the thrombin mutant.

whole blood = experiment: Thrombelastography (TEG) of clot formation in recalcified whole blood; type: biochemical, human; details: for effect on TEG amplitude (strength of clot): anticoagulant alone: bivalirudin 5 μg/ml, lepirudin 1 μg/ml, argatroban 0.5 μg/ml
Protocol: as §1
The viscoelastic measurement of clot formation was evaluated using Thrombelastogarphy (TEG®, Haemoscope, Niles, Ill.). […] For TEG® measurements, 360 μl aliquots of the samples were transferred to disposable cups containing […] 0.4 M CaCl2. Effects of W215A/E217A on TEG® variables were evaluated after adding this thrombin mutant (5 μg/ml, final concentration) to respective samples. The TEG® variables, the reaction time (in minutes) which represents the onset of clot formation, and maximum amplitude (in mm) which reflects the strength of clot were compared for different groups (Kawasaki et al. (2004) Anesthesia & Analgesia, 99:1440-1444).

α-thrombin = α-thrombin (Homo sapiens, UniProt P00734); details: association constant for α-thrombin and inhibitor; cited from earlier work
[1] = off-pump coronary surgery, cited from earlier work
[2] = system: lepirudin (Refludan, Berlex)
[3] = system: bivalirudin (Angiomax, Medicines Company)

Compound | effect on onset and peak of thrombin generation (platelet-poor plasma) | effect on TEG amplitude (strength of clot) (whole blood) | kon (α-thrombin) | activated partial thromboplastin time (APTT) in lepirudin-treated plasma [2] | activated partial thromboplastin time (APTT) in bivalirudin-treated plasma [3] | other results
lepirudin | prolonged the onset of thrombin generation, but not the peak level | minimally affected | 290 10^6 M^−1s^−1 |  |  | 
Protamine sulfate |  |  |  |  |  | effect on thrombin generation in the presence of heparin (platelet-poor plasma; heparin 0.2 U/ml, W215A/E217A 5 μg/ml or protamine sulfate 2 μg/ml): reversed the peak level; reversal of heparin on TEG (onset, clot strength) (whole blood; protamine sulfate 5 μg/ml, heparin 0.5 U/ml): restores the onset completely, and to a lesser extent clot strength
CC1CNc2c(cccc2S(=O)(=O)N[C@@H](CCCNC(=N)N)C(=O)N2CC[C@@H](C)C[C@@H]2C(=O)O)C1 (stereo partly drawn) [Argatroban, argatroban] | prolonged the onset and reduced the peak | reduced |  |  |  | peak thrombin level (platelet-poor plasma; argatroban at 0.5 and 1 μg/ml, with W215A/E217A added (FIG. 6D)): > 100 nM
bivalirudin | prolonged the onset of thrombin generation, but not the peak level | minimally affected | 430 10^6 M^−1s^−1 |  |  | range of blood loss ([1]; n=50): 320-4,909 ml; 12-hour post-operative chest tube drainage, median [1]: 793 mL
human thrombin mutant W215A/E217A |  |  |  | The addition of W215A/E217A to plasma shifted APTT values toward normal ranges. | The addition of W215A/E217A to plasma shifted APTT values toward normal ranges. | TEG reaction time and amplitude in lepirudin-treated whole blood [2]: With addition of W215A/E217A (5 µg/ml), both reaction time and amplitude variables were reversed to normal for all DTIs; onset (latency) of thrombin generation, Thrombinoscope, lepirudin-treated plasma [2]: W215A/E217A was effective in shortening prolonged latency of thrombin generation.; TEG reaction time and amplitude in bivalirudin-treated whole blood [3]: With addition of W215A/E217A (5 µg/ml), both reaction time and amplitude variables were reversed to normal for all DTIs; onset (latency) of thrombin generation, Thrombinoscope, bivalirudin-treated plasma [3]: W215A/E217A was effective in shortening prolonged latency of thrombin generation.
catalytic-site blocked thrombin (thrombin saturated with Phe-Pro-Arg-chlormethylketone) |  |  |  | The active site blocked thrombin (FPR-TH) had no effect on APTT prolonged with either DTIs or heparin. | The active site blocked thrombin (FPR-TH) had no effect on APTT prolonged with either DTIs or heparin. | 
